Data on one protein can be found in PMC12329027 (Communications Chemistry, 2025).

The series deals with the molecule itself. Kind of series: cryo-EM structure.

B1: full-length human αA-crystallin carrying the pathological mutation R116C (natural protein)
chain: MDVTIQHPWFKRTLGPFYPSRLFDQFFGEGLFEYDLLPFLSSTISPYYRQSLFRTVLDSGISEVRSDRDKFVIFLDVKHFSPEDLTVKVQDDFVEIHGKHNERQDDHGYISREFHCRYRLPSNVDQSALSCSLSADGMLTFCGPKIQTGLDATHAERAIPVSREEKPTSAPSS
For the protein B1, the binding result is reported as “binds”.
